Source: publication PMC4457826 (PLoS Pathogens, 2015)

Tests used:
[1] = system: USP7-CTD mutant D762R/D764R; experiment: GST pull-down, USP7-CTD D762R/D764R; assay type: binding, human
Experimental: (§1) Fragments representing USP7-CTD Ubl domains were prepared using ligation independent cloning with In-Fusion (Clontech) in p15TV-L. The boundaries of the Ubl domain constructs are Ubl12 (535–776), Ubl123 (535–889), Ubl345 (776–1102), Ubl45 (886–1102) and USP7-CTD (535–1102). Plasmids expressing USP7-NTD, USP7, and myc-USP7 WT (pCANmycUSP7) were described previously. USP7 mutants E759A, D762A, D764A and D762A/D764A in Ubl123 were synthesized (Genscript) and inserted into the pET15b plasmid. USP7 mutants E759A, D762A, D764A, D762A/D764A and D762R/D764R in USP7-CTD were prepared by ACGT Corporation. The D762R/D764R mutant was then sub-cloned into wild-type pCANmycUSP7 for co-IP assays. The mammalian ICP0 expression construct pCI-110 ICP0 was obtained from Roger Everett.
(§2) The ICP0, GMPS and UHRF1 WT and mutant peptides were cloned into pGEX-2TK and expressed in E. coli BL21(DE3). GST-ICP0 594–775 was obtained from Roger Everett. The GST-ICP0 or GST-GMPS or GST-UHRF1 or GST-ICP0 594–775 cell pellets from 500 ml of LB broth were re-suspended with PBS and lysed using sonication. The cleared lysates were applied to 500 μl of equilibrated glutathione-sepharose beads and incubated with rocking for 60 min at 4°C. Unbound proteins were removed by washing with PBS. Bound proteins were eluted with 50 mM Tris pH 8.0 and 100 mM NaCL containing 30 mM reduced glutathione. […]

USP7-CTD = molecular target: T1, USP7-CTD (Homo sapiens, UniProt Q93009); experiment: GST pull-down, USP7-CTD; assay type: binding; conditions: GST pull-down; GST-ICP0 594–775, GST-GMPS and GST-UHRF1 peptides and mutants; Fig 3H, 4C-F
T1 construct: USP7-CTD (535–1102); His tag (inferred from nickel-NTA purification; vector p15TV-L); made in house; host or cells: E. coli BL21(DE3)mgk
T1 sequence (Q93009 535-1102): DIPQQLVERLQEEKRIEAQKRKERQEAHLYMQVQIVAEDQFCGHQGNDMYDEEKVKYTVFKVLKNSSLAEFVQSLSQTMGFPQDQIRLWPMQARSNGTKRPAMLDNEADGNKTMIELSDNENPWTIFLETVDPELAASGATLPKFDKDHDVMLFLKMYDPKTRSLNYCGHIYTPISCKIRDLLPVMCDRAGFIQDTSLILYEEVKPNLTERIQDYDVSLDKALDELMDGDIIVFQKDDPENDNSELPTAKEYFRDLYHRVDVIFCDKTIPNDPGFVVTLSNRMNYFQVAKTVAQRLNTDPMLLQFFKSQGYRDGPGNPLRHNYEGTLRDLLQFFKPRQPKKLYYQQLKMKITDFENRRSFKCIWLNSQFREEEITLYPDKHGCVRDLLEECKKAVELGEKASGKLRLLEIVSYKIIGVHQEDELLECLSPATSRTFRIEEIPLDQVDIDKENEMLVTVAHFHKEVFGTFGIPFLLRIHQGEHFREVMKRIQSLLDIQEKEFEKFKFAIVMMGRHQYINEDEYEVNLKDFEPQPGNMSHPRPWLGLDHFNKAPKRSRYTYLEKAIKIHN
Experimental: as §1, §2

B1: GST-ICP0 594–775: longer ICP0 peptide corresponding to residues 594–775 (protein)
chain: AVGALGGRQEETSLGPRAASGPRGPRKCARKTRHAETSGAVPAGGLTRYLPISGVSSVVALSPYVNKTITGDCLPILDMETGNIGAYVVLVDQTGNMATRLRAAVPGWSRRTLLPETAGNHVMPPEYPTAPASEWNSLWMTPVGNMLFDQGTLVGALDFRSLRSRHPWSGEQGASTRDEGKQ
modifications: left off: GST, end not stated, kept
Question: B1 was tested. Which “Binding to USP7-CTD mutant D762R/D764R” value [1] did it give?
Answer: not D762R/D764R USP7-CTD

Question: What about the “Binding to WT USP7-CTD” value (USP7-CTD) of the same molecule?
Answer: interaction was observed
